According to article PMC314469, “Protein Interaction Networks by Proteome Peptide Scanning” (PLoS Biology, 2004):

Legend:
[1] = target: amphyphisin SH3 (AMPH_HUMAN) (UniProt P49418); test: SPOT array
[2] = target: endophilin SH3 (SH3G2_HUMAN) (UniProt Q99962); test: SPOT array

P46781 11-24 gave a normalised SPOT signal, Boehringer light units (BLU); mean over the file's lines of this peptide [1] of 245 and a normalised SPOT signal, Boehringer light units (BLU); mean over the file's lines of this peptide [2] of 269.
